The source of these data is patent US20220332804A1 (CSL INNOVATION, published 2022).

Test in all cases: SPR, antibody captured, C2 as analyte;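 further: biacore at 37 °C, anti-C2 mAbs held by immobilised goat anti-human IgG, C2 alanine or serine mutants injected, double-referenced sensorgrams fitted to a 1:1 kinetic or steady-state model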
In general terms: Surface plasmon resonance follows binding to a sensor surface in real time, without labels.

For assay [1], the target named is T1, human C2 S456A (human, UniProt P06681 21-752).
T1 sequence: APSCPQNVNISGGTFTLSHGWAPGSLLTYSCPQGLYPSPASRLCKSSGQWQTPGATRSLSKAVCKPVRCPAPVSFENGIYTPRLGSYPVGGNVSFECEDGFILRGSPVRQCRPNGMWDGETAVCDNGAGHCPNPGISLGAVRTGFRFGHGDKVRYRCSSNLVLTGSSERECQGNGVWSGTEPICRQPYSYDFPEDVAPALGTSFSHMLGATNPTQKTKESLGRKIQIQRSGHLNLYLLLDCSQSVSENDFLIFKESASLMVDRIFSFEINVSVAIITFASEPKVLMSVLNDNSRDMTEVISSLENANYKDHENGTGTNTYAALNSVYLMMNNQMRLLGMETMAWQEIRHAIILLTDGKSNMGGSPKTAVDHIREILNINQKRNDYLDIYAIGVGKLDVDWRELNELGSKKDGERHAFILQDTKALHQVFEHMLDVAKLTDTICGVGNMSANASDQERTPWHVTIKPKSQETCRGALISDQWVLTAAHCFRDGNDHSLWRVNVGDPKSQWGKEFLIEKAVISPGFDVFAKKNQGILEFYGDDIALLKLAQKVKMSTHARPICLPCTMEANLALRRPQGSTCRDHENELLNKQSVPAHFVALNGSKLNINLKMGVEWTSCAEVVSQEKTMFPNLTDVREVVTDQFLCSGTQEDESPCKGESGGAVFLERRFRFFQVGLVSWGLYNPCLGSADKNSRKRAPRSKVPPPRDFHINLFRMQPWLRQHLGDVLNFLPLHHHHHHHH

Assay [2] concerns the target T2, human C2 E433A (human, UniProt P06681 21-752).
T2 sequence: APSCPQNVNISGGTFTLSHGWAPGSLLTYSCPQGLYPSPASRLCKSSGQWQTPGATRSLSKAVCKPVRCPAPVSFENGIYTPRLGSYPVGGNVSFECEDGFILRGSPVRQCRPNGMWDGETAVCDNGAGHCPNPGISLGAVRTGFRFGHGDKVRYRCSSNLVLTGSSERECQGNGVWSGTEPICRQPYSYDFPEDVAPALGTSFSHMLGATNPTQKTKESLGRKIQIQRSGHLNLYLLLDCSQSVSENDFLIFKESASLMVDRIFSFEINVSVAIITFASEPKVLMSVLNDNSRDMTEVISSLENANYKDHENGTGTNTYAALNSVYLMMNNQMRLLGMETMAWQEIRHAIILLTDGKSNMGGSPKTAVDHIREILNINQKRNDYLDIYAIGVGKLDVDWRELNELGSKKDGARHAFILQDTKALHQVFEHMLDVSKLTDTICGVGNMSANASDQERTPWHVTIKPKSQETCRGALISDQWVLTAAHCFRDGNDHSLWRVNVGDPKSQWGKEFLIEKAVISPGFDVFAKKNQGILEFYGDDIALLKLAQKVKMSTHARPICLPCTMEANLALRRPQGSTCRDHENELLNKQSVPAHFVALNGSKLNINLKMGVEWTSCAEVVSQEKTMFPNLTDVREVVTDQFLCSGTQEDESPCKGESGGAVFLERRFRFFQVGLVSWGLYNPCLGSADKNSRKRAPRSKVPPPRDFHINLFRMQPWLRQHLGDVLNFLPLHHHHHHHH

The target in assay [3] is T3, human C2 I320A (human, UniProt P06681 21-752).
T3 sequence: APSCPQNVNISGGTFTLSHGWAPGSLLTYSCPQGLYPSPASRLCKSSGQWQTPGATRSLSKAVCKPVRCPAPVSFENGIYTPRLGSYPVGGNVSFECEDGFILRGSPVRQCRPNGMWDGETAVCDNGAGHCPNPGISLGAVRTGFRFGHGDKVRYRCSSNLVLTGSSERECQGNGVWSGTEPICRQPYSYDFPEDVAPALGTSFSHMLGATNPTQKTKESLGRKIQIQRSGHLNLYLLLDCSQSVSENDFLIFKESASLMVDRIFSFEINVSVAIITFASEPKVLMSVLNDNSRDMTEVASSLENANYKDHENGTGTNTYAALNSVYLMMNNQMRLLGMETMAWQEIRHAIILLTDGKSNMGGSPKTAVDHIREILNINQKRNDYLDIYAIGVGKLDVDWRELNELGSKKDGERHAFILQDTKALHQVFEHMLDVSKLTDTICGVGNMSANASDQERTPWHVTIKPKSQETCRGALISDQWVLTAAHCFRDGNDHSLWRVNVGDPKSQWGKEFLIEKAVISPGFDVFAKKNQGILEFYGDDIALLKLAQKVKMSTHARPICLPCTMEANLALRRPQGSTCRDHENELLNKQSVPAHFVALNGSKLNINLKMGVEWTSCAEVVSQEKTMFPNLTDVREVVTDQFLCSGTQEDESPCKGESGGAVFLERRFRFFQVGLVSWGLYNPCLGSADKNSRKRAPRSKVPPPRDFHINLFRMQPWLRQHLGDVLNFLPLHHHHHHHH

The target in assay [4] is T4, human C2 N327A (human, UniProt P06681 21-752).
T4 sequence: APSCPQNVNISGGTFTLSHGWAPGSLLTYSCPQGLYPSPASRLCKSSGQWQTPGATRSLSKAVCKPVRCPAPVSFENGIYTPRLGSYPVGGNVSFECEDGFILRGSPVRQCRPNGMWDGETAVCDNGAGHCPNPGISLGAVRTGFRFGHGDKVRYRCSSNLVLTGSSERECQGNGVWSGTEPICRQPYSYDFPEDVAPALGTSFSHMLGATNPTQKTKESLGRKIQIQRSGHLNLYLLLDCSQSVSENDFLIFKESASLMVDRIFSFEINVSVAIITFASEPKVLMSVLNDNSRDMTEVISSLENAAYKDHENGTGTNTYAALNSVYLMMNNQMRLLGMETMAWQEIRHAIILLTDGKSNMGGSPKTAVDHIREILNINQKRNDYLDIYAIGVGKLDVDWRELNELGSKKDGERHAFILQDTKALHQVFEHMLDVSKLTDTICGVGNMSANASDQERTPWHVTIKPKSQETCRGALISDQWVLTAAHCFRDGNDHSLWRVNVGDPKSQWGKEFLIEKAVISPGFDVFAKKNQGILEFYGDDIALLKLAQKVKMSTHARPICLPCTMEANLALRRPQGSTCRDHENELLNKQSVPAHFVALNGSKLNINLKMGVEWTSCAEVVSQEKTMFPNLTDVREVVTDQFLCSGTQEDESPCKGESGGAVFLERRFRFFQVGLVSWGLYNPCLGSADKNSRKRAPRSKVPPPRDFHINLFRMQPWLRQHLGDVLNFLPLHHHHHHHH

B1: RF16-242 (antibody, human IgG4 S228P, lambda, V domains shown)
VH: EVQLLQSGAEVKKPGESLKISCKGSGYSFTSYWIGWVRQMPGKGLEWMGIIYPGDSDTRYSPSFQGQVTISADKSISTAYLQWSSLKASDTAMYYCARRGHYGDYFDYWGQGTLVTVSS
VL: SYELTQPPSVSVSPGQTARITCSGDALPKKYAYWYHQKSGQAPVLVIYEDRRRPSEIPERFSGSSSGTMATLTITGAQVEDEGVYFCYSRDRAGNQRVFGGGTQLTVLG
notes: pH-dependent anti-C2 antibody from a phage display library
In general, Kd refers to a measure of binding affinity in units of concentration. Regarding B1, the Kd in assay [1] amounted to 59.8 nM; in assay [2], 3 nM; in assay [3], 73.5 nM; in assay [4], 37.5 nM.
